According to patent US20250042956A1:

Key:
[1] = molecular target: AT3G10490.2 NAC052 (Arabidopsis thaliana) (UniProt Q9SQY0); test: X-link IP-MS
[2] = molecular target: AT1G22950.1 ICU11 (Arabidopsis thaliana) (UniProt Q3ED68); test: X-link IP-MS
[3] = molecular target: AT1G49950.3 TRB1 (Arabidopsis thaliana) (UniProt Q8VWK4); test: X-link IP-MS
[4] = molecular target: AT3G20740.1 FIE (Arabidopsis thaliana) (UniProt Q9LT47); test: X-link IP-MS
[5] = molecular target: AT3G10480.3 NAC050 (Arabidopsis thaliana) (UniProt Q9SQX9); test: X-link IP-MS
AT3G10480.3 NAC050 (Arabidopsis thaliana), sequence (Q9SQX9 whole entry): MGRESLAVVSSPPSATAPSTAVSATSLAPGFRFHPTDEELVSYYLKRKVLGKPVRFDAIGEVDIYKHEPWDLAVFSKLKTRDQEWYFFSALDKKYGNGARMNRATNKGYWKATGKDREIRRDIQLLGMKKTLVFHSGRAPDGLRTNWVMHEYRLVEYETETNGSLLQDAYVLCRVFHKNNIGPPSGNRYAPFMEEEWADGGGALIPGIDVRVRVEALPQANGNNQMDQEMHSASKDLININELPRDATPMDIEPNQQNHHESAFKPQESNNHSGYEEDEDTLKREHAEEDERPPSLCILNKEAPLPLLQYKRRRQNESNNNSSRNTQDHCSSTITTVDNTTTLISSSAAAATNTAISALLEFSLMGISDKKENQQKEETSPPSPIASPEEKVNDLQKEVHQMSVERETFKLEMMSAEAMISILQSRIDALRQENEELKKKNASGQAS

[6] = molecular target: AT3G18210.1 CP2 (Arabidopsis thaliana) (UniProt P0DO23); test: X-link IP-MS
AT3G18210.1 CP2 (Arabidopsis thaliana), sequence (P0DO23 whole entry): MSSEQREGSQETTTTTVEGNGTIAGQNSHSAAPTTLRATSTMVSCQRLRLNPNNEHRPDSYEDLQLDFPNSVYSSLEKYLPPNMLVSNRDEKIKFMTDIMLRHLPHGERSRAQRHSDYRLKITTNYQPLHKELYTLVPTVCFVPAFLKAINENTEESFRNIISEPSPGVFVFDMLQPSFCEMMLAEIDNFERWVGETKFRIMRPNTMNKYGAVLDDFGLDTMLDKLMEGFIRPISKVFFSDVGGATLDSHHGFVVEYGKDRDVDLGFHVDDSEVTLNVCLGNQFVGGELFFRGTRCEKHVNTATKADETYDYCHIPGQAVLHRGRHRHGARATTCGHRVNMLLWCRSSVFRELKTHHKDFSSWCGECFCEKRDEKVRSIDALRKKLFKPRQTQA

[7] = molecular target: AT5G58230.1 MSI1 (Arabidopsis thaliana) (UniProt O22467); test: X-link IP-MS
[8] = molecular target: AT2G23380.1 CLF (Arabidopsis thaliana) (UniProt P93831); test: X-link IP-MS
AT2G23380.1 CLF (Arabidopsis thaliana), sequence (P93831 whole entry): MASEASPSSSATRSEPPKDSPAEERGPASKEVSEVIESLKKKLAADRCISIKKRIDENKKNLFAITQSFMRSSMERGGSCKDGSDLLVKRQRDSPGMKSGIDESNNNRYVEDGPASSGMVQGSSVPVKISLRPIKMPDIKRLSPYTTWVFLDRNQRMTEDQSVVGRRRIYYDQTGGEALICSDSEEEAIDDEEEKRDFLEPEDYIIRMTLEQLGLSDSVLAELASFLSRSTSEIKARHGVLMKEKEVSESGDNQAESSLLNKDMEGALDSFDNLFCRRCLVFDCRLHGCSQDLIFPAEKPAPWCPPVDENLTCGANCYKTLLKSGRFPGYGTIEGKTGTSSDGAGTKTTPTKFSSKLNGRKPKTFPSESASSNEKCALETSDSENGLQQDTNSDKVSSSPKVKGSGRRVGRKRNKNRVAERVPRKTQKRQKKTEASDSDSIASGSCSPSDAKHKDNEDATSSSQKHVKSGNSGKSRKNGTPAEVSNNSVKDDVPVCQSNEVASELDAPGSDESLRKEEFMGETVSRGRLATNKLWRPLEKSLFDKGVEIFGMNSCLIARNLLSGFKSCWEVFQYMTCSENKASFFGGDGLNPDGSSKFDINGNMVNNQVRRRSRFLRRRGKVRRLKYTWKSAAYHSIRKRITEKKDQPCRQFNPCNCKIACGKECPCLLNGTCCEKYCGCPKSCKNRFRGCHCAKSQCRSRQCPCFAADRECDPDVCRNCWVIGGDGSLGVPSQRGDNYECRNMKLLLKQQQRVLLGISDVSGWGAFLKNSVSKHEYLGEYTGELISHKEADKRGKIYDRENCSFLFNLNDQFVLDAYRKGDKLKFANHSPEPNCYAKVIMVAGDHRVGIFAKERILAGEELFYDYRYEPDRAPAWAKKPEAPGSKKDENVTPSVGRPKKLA

[9] = molecular target: AT5G11530.1 EMF1 (Arabidopsis thaliana) (UniProt Q9LYD9); test: X-link IP-MS
[10] = molecular target: AT5G51230.1 EMF2 (Arabidopsis thaliana) (UniProt Q8L6Y4); test: X-link IP-MS
AT5G51230.1 EMF2 (Arabidopsis thaliana), sequence (Q8L6Y4 whole entry): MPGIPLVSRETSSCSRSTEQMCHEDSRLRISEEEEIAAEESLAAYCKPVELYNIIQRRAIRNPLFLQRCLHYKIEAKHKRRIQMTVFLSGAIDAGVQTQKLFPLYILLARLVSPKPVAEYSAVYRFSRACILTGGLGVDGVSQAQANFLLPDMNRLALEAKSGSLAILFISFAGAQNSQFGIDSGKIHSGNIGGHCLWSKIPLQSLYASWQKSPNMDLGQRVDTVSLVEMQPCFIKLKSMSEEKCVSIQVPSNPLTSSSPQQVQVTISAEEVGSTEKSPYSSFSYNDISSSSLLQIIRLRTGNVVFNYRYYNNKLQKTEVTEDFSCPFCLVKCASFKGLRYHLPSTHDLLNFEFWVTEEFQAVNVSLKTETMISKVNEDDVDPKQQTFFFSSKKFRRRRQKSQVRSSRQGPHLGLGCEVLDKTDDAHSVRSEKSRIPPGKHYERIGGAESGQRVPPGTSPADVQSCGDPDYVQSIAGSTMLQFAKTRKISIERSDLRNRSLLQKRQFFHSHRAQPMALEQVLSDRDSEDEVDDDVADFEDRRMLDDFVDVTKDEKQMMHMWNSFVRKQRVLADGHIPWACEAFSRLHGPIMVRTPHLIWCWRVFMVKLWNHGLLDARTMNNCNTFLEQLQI

[11] = molecular target: T1, AT4G02020.1 SWN (Arabidopsis thaliana) (UniProt Q9ZSM8); test: X-link IP-MS
T1 sequence (looked up): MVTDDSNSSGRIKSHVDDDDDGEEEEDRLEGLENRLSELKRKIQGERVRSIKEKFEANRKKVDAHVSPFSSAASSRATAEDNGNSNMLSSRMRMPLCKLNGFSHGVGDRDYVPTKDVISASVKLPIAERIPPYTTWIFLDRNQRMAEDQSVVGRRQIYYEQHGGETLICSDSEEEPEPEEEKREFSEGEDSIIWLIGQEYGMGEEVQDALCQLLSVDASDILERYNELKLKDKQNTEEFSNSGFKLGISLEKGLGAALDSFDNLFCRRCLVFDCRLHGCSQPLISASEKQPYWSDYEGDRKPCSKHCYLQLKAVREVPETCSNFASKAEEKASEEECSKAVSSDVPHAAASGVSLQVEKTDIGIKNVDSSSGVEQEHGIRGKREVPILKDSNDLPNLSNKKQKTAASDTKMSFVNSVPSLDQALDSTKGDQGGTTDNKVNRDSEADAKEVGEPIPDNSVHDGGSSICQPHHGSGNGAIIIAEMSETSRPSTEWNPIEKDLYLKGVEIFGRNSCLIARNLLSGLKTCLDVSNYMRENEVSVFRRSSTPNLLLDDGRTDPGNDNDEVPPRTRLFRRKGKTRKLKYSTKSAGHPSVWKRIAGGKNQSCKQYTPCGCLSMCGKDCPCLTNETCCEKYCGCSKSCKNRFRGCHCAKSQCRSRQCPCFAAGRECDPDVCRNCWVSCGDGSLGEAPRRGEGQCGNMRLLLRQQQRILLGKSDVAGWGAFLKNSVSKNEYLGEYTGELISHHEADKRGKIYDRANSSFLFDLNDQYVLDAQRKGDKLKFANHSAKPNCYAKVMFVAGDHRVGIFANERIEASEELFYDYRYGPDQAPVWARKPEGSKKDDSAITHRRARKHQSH

[12] = molecular target: T2, AT5G17690.1 LHP1 (Arabidopsis thaliana) (UniProt Q946J8); test: X-link IP-MS
T2 sequence: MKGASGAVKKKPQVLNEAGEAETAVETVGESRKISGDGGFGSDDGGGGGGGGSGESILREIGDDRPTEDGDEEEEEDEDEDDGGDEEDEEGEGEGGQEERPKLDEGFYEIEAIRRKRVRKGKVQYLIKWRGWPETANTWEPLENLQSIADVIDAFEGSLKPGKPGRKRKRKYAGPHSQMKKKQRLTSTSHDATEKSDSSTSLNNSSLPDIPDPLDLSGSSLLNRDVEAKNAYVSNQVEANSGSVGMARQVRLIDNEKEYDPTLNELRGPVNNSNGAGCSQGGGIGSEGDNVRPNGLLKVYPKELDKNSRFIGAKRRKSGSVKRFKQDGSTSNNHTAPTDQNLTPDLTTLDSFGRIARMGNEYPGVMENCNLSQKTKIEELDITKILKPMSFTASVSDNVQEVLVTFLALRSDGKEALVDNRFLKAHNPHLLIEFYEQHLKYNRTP

[13] = molecular target: AT3G10490.2 NAC052 (Arabidopsis thaliana) (UniProt Q9SQY0); test: IP-MS rep 2
[14] = molecular target: AT1G22950.1 ICU11 (Arabidopsis thaliana) (UniProt Q3ED68); test: IP-MS rep 2
[15] = molecular target: AT1G49950.3 TRB1 (Arabidopsis thaliana) (UniProt Q8VWK4); test: IP-MS rep 2
[16] = molecular target: AT3G20740.1 FIE (Arabidopsis thaliana) (UniProt Q9LT47); test: IP-MS rep 2
[17] = molecular target: AT3G10480.3 NAC050 (Arabidopsis thaliana) (UniProt Q9SQX9); test: IP-MS rep 2
[18] = molecular target: AT3G18210.1 CP2 (Arabidopsis thaliana) (UniProt P0DO23); test: IP-MS rep 2
[19] = molecular target: AT5G58230.1 MSI1 (Arabidopsis thaliana) (UniProt O22467); test: IP-MS rep 2
[20] = molecular target: AT2G23380.1 CLF (Arabidopsis thaliana) (UniProt P93831); test: IP-MS rep 2
[21] = molecular target: AT5G11530.1 EMF1 (Arabidopsis thaliana) (UniProt Q9LYD9); test: IP-MS rep 2
[22] = molecular target: AT5G51230.1 EMF2 (Arabidopsis thaliana) (UniProt Q8L6Y4); test: IP-MS rep 2
[23] = molecular target: T1, AT4G02020.1 SWN (Arabidopsis thaliana); test: IP-MS rep 2
[24] = molecular target: T2, AT5G17690.1 LHP1 (Arabidopsis thaliana); test: IP-MS rep 2
[25] = molecular target: AT3G10490.2 NAC052 (Arabidopsis thaliana) (UniProt Q9SQY0); test: IP-MS rep 1
[26] = molecular target: AT1G22950.1 ICU11 (Arabidopsis thaliana) (UniProt Q3ED68); test: IP-MS rep 1
[27] = molecular target: AT1G49950.3 TRB1 (Arabidopsis thaliana) (UniProt Q8VWK4); test: IP-MS rep 1
[28] = molecular target: AT3G20740.1 FIE (Arabidopsis thaliana) (UniProt Q9LT47); test: IP-MS rep 1
[29] = molecular target: AT3G10480.3 NAC050 (Arabidopsis thaliana) (UniProt Q9SQX9); test: IP-MS rep 1
[30] = molecular target: AT3G18210.1 CP2 (Arabidopsis thaliana) (UniProt P0DO23); test: IP-MS rep 1
[31] = molecular target: AT5G58230.1 MSI1 (Arabidopsis thaliana) (UniProt O22467); test: IP-MS rep 1
[32] = molecular target: AT2G23380.1 CLF (Arabidopsis thaliana) (UniProt P93831); test: IP-MS rep 1
[33] = molecular target: AT5G11530.1 EMF1 (Arabidopsis thaliana) (UniProt Q9LYD9); test: IP-MS rep 1
[34] = molecular target: AT5G51230.1 EMF2 (Arabidopsis thaliana) (UniProt Q8L6Y4); test: IP-MS rep 1
[35] = molecular target: T1, AT4G02020.1 SWN (Arabidopsis thaliana); test: IP-MS rep 1
[36] = molecular target: T2, AT5G17690.1 LHP1 (Arabidopsis thaliana); test: IP-MS rep 1
[37] = molecular target: AT5G63110.1 HDA6 (Arabidopsis thaliana) (UniProt Q9FML2); test: IP-MS rep 2
[38] = molecular target: AT4G20400.1 JMJ14 (Arabidopsis thaliana) (UniProt Q8GUI6); test: IP-MS rep 2
AT4G20400.1 JMJ14 (Arabidopsis thaliana), sequence (Q8GUI6 whole entry): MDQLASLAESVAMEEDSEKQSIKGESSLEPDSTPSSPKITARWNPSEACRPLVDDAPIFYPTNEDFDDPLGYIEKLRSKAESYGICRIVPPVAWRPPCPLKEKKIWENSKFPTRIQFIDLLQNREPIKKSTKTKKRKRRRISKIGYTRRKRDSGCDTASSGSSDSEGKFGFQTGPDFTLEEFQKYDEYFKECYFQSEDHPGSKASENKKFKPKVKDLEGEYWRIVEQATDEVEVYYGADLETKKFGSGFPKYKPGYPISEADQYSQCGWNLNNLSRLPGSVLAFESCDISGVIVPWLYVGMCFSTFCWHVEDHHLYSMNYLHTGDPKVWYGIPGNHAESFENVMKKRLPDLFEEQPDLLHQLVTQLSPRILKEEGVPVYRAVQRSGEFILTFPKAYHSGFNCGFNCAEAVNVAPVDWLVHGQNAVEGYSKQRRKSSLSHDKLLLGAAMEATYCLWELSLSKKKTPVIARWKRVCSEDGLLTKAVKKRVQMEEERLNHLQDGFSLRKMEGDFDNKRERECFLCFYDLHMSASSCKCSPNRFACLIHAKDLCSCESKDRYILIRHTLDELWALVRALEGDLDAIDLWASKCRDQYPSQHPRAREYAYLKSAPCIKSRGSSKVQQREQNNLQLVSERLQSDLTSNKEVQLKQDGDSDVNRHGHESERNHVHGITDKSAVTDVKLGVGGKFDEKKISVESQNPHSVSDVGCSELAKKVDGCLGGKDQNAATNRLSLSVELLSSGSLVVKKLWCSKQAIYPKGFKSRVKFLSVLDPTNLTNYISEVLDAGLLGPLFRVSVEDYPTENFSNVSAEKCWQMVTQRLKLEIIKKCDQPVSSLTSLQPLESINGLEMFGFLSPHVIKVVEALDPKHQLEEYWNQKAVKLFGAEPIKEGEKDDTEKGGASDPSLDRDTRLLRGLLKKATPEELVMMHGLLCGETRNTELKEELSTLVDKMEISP

[39] = molecular target: AT4G38130.1 HDA19 (Arabidopsis thaliana) (UniProt O22446); test: IP-MS rep 2
AT4G38130.1 HDA19 (Arabidopsis thaliana), sequence (O22446 whole entry): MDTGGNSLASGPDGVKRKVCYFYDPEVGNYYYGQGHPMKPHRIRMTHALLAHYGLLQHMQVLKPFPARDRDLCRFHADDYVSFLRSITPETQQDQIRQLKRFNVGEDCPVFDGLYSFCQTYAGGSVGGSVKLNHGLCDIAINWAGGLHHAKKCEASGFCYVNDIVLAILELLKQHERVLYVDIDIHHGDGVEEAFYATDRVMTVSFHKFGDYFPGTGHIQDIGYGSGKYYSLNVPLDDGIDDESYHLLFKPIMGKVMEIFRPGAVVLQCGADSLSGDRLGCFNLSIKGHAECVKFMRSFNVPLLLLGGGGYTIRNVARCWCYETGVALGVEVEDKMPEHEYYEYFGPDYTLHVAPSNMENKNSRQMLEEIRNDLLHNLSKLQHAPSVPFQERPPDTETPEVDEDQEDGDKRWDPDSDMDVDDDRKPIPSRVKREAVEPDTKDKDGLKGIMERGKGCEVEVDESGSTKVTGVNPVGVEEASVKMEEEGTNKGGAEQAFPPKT

[40] = molecular target: AT5G63110.1 HDA6 (Arabidopsis thaliana) (UniProt Q9FML2); test: IP-MS rep 1
[41] = molecular target: AT4G20400.1 JMJ14 (Arabidopsis thaliana) (UniProt Q8GUI6); test: IP-MS rep 1
[42] = molecular target: AT4G38130.1 HDA19 (Arabidopsis thaliana) (UniProt O22446); test: IP-MS rep 1

AT1G22950.1 ICU11 (Arabidopsis thaliana), sequence (Q3ED68 whole entry): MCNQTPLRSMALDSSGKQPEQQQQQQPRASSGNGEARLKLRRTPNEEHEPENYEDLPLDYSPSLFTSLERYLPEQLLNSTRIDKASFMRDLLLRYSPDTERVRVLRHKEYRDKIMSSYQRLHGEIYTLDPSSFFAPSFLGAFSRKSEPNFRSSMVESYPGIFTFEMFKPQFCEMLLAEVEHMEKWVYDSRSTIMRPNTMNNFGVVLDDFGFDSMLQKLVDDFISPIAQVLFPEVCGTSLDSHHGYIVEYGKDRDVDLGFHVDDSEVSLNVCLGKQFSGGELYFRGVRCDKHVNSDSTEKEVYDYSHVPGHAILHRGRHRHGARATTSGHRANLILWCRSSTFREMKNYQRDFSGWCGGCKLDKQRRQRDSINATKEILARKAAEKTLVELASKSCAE
AT3G10490.2 NAC052 (Arabidopsis thaliana), sequence (Q9SQY0 whole entry): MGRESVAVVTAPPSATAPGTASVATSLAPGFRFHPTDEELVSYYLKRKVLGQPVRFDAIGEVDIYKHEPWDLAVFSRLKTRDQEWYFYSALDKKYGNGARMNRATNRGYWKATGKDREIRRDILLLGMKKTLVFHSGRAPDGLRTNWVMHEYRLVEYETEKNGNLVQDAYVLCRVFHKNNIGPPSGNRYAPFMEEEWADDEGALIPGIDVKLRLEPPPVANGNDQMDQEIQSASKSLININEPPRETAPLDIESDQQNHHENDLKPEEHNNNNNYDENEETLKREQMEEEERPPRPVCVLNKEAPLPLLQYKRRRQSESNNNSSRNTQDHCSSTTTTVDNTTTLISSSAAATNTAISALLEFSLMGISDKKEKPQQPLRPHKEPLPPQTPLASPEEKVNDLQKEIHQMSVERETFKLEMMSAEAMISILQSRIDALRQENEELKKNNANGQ
AT1G49950.3 TRB1 (Arabidopsis thaliana), sequence (Q8VWK4 whole entry): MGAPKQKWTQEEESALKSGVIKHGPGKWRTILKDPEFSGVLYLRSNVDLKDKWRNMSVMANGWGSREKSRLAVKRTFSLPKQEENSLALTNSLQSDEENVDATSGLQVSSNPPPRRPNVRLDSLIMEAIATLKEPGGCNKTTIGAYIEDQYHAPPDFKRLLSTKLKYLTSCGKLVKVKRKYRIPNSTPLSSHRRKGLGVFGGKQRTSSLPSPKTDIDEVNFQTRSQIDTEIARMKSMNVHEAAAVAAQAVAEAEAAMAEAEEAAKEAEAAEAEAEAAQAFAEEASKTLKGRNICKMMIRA

Substance	IP-MS count [1]	IP-MS count [2]	IP-MS count [13]	IP-MS count [14]	IP-MS count [16]	IP-MS count [19]	IP-MS count [20]	IP-MS count [21]	IP-MS count [22]	IP-MS count [23]	IP-MS count [24]	IP-MS count [25]	IP-MS count [26]	IP-MS count [28]	IP-MS count [31]	IP-MS count [32]	IP-MS count [33]	IP-MS count [34]	IP-MS count [35]	IP-MS count [36]	further results
FLAG-TRB2 (from UniProt Q9FJW5 1-299)	55	33	22	50	28	21	5	56	15	12	15	11	53	30	26	5	55	10	11	15	IP-MS count [3]: 10; IP-MS count [4]: 35; IP-MS count [5]: 39; IP-MS count [6]: 17; IP-MS count [7]: 30; IP-MS count [8]: 15; IP-MS count [9]: 90; IP-MS count [10]: 27; IP-MS count [11]: 33; IP-MS count [12]: 17; IP-MS count [15]: 4; IP-MS count [17]: 1; IP-MS count [18]: 5; IP-MS count [27]: 0; IP-MS count [29]: 1; IP-MS count [30]: 4
TRBIP1 (bait of the TRBIP1 IP-MS)	–	–	2	19	3	9	0	7	3	6	8	10	32	22	20	7	36	10	15	14	IP-MS count [37]: 5; IP-MS count [38]: 0; IP-MS count [39]: 3; IP-MS count [40]: 7; IP-MS count [41]: 7; IP-MS count [42]: 4
FLAG-TRB3 (from UniProt Q9M2X3 1-295)	59	37	28	73	41	35	19	83	23	24	19	24	79	34	37	15	81	23	16	15	IP-MS count [3]: 9; IP-MS count [4]: 34; IP-MS count [5]: 39; IP-MS count [6]: 12; IP-MS count [7]: 31; IP-MS count [8]: 19; IP-MS count [9]: 104; IP-MS count [10]: 29; IP-MS count [11]: 36; IP-MS count [12]: 18; IP-MS count [15]: 0; IP-MS count [17]: 4; IP-MS count [18]: 31; IP-MS count [27]: 0; IP-MS count [29]: 5; IP-MS count [30]: 38
TRBIP2 (bait of the TRBIP2 IP-MS)	–	–	0	4	–	0	–	0	–	0	–	4	16	–	3	–	4	–	3	–	IP-MS count [37]: 3; IP-MS count [38]: 0; IP-MS count [39]: 1; IP-MS count [40]: 10; IP-MS count [41]: 3; IP-MS count [42]: 4
